Laboratory results published in patent publication US6017871A, “Protease-containing cleaning compositions” (The Procter & Gamble Company, priority 1997, dated 2000).
Numbered stars: 1 amine (or outer) side, 2 acyl side, 3 side chain; on linkers, the order of the positions; unused ones are H or OH. Peptide text beside a SMILES is read from it. * marks the point of attachment. pNA = O=[N+]([O-])c1ccc(N*)cc1; Suc = O=C(CCC(=O)[*:2])[*:1]

Experiments:
Assay in all cases: Kinetic parameters for hydrolysis of synthetic peptide substrate
[1] = target: T1, Bacillus lentus subtilisin (GG36), wild type, Seq. ID No.10 (Lederbergia lenta, UniProt P29600); assay type: biochemical; details: Table III; 0.1 M Tris-HCL buffer, pH 8.6, 25° C.
T1 construct: The mature subtilisin protein is coded by the codons beginning at the codon GCG (334-336) corresponding to Ala; made in house; host or cells: Bacillus subtilis
T1 sequence (P29600 1-269): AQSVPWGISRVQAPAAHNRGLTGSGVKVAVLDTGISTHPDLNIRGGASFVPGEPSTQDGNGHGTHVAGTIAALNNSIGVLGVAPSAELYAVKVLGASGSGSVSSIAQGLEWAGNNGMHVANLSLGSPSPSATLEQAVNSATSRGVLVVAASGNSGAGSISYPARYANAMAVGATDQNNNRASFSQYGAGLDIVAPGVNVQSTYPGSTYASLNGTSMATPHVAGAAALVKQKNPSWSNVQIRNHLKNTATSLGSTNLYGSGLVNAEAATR
Procedure: (§1) The kinetic parameters kcat, KM, and kcat KM are measured for hydrolysis of the synthetic peptide substrate succinyl-L-Ala-L-Ala-L-Pro-L-Phe-p-nitroanilide using the method described in P. Bonneau et al. (1991) J. Am. Chem. Soc., Vol. 113, No. 3, p. 1030. Briefly, a small aliquot of subtilisin variant stock solution is added to a 1 cm cuvette containing substrate dissolved in 0.1 M Tris-HCL buffer, pH 8.6, and thermostated at 25° C. The reaction progress is followed spectrophotometrically by monitoring the absorbance of the reaction product p-nitroaniline at 410 nm. Kinetic parameters are obtained by using a non-linear regression algorithm to fit the reaction velocity and product concentration for each reaction to the Michaelis-Menten equation.
(§2) Numerous variants are made as per the teachings of these Protease Manufacture Examples. Kinetics data and stability data are generated for such variants. The kinetics data are generated using the methods described hereinbefore and are provided in Table V. The stability data are generated as detailed herein.

[2] = target: T2, B. amyloliquefaciens subtilisin (BPN'), wild type, Seq. ID No.7 (Bacillus amyloliquefaciens, UniProt P00782); assay type: biochemical; details: Table V; 0.1 M Tris-HCL buffer, pH 8.6, 25° C.
T2 construct: made in house; host or cells: protease-deficient Bacillus subtilis
T2 sequence (P00782 108-382): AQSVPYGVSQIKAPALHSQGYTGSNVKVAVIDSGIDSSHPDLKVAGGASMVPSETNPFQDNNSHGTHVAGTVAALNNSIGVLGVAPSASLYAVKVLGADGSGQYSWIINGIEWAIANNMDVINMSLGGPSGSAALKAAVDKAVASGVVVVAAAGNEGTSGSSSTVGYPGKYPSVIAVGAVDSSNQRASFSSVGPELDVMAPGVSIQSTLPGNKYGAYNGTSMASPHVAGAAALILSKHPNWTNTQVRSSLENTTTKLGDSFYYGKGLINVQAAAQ
Procedure: as §1, §2

[3] = substrate: C[C@H](NC(=O)CCC(=O)O)C(=O)N[C@@H](C)C(=O)N1CCC[C@H]1C(=O)N[C@@H](Cc1ccccc1)C(=O)Nc1ccc([N+](=O)[O-])cc1; assay type: biochemical, Bacillus amyloliquefaciens; details: other: Table V, 0.1 M Tris-HCL buffer, pH 8.6, 25° C.
Procedure: as §1, §2

[4] = substrate: C[C@H](NC(=O)CCC(=O)O)C(=O)N[C@@H](C)C(=O)N1CCC[C@H]1C(=O)N[C@@H](Cc1ccccc1)C(=O)Nc1ccc([N+](=O)[O-])cc1; assay type: biochemical, Bacillus lentus; details: other: Table III, 0.1 M Tris-HCL buffer, pH 8.6, 25° C.
Procedure: as §1, §2

[5] = substrate: C[C@H](NC(=O)CCC(=O)O)C(=O)N[C@@H](C)C(=O)N1CCC[C@H]1C(=O)N[C@@H](Cc1ccccc1)C(=O)Nc1ccc([N+](=O)[O-])cc1; assay type: biochemical, Bacillus lentus; details: other: Table III, 0.1 M Tris-HCL buffer, pH 8.6, 25° C.; remark: listed apart in the source
Procedure: as §1

C[C@H](NC(=O)CCC(=O)O)C(=O)N[C@@H](C)C(=O)N1CCC[C@H]1C(=O)N[C@@H](Cc1ccccc1)C(=O)Nc1ccc([N+](=O)[O-])cc1 [succinyl-L-Ala-L-Ala-L-Pro-L-Phe-p-nitroanilide] (Suc-AAPF-pNA)
kcat/KM [1]: 218000 M⁻¹ s⁻¹ | kcat [2]: 50 s⁻¹ | kcat/KM [2]: 3.60E + 05 s^-1 M^-1

B1: B. amyloliquefaciens subtilisin (BPN') variant BPN'-N76D/Y217L (Bacillus amyloliquefaciens; N183D/Y324L) (protein)
chain: AQSVPYGVSQIKAPALHSQGYTGSNVKVAVIDSGIDSSHPDLKVAGGASMVPSETNPFQDNNSHGTHVAGTVAALDNSIGVLGVAPSASLYAVKVLGADGSGQYSWIINGIEWAIANNMDVINMSLGGPSGSAALKAAVDKAVASGVVVVAAAGNEGTSGSSSTVGYPGKYPSVIAVGAVDSSNQRASFSSVGPELDVMAPGVSIQSTLPGNKYGALNGTSMASPHVAGAAALILSKHPNWTNTQVRSSLENTTTKLGDSFYYGKGLINVQAAAQ
notes: made in house; host or cells: protease-deficient Bacillus subtilis
Km [3]: 460 µM | kcat [3]: 380 s⁻¹ | kcat/Km [3]: 8.30E + 05 s^-1 M^-1

B2: Bacillus lentus subtilisin (GG36), wild type, Seq. ID No.10 (Lederbergia lenta) (protein)
chain: AQSVPWGISRVQAPAAHNRGLTGSGVKVAVLDTGISTHPDLNIRGGASFVPGEPSTQDGNGHGTHVAGTIAALNNSIGVLGVAPSAELYAVKVLGASGSGSVSSIAQGLEWAGNNGMHVANLSLGSPSPSATLEQAVNSATSRGVLVVAASGNSGAGSISYPARYANAMAVGATDQNNNRASFSQYGAGLDIVAPGVNVQSTYPGSTYASLNGTSMATPHVAGAAALVKQKNPSWSNVQIRNHLKNTATSLGSTNLYGSGLVNAEAATR
notes: The mature subtilisin protein is coded by the codons beginning at the codon GCG (334-336) corresponding to Ala; made in house; host or cells: Bacillus subtilis
Km [4]: 780 µM | kcat [4]: 170 s⁻¹ | kcat/Km [4]: 2.20E + 05 s^-1 M^-1

B3: Bacillus lentus subtilisin variant N76D/S101R (Protease #2) (Lederbergia lenta; N74D/S99R) (protein)
chain: AQSVPWGISRVQAPAAHNRGLTGSGVKVAVLDTGISTHPDLNIRGGASFVPGEPSTQDGNGHGTHVAGTIAALDNSIGVLGVAPSAELYAVKVLGASGRGSVSSIAQGLEWAGNNGMHVANLSLGSPSPSATLEQAVNSATSRGVLVVAASGNSGAGSISYPARYANAMAVGATDQNNNRASFSQYGAGLDIVAPGVNVQSTYPGSTYASLNGTSMATPHVAGAAALVKQKNPSWSNVQIRNHLKNTATSLGSTNLYGSGLVNAEAATR
notes: as for B2
Km [5]: 1300 µM | kcat [5]: 371 s⁻¹ | kcat/Km [5]: 285000 M⁻¹ s⁻¹

B4: Bacillus lentus subtilisin variant N76D/I107V (Protease #5) (Lederbergia lenta; I105V/N74D) (protein)
chain: AQSVPWGISRVQAPAAHNRGLTGSGVKVAVLDTGISTHPDLNIRGGASFVPGEPSTQDGNGHGTHVAGTIAALDNSIGVLGVAPSAELYAVKVLGASGSGSVSSVAQGLEWAGNNGMHVANLSLGSPSPSATLEQAVNSATSRGVLVVAASGNSGAGSISYPARYANAMAVGATDQNNNRASFSQYGAGLDIVAPGVNVQSTYPGSTYASLNGTSMATPHVAGAAALVKQKNPSWSNVQIRNHLKNTATSLGSTNLYGSGLVNAEAATR
notes: as for B2
Km [5]: 1100 µM | kcat [5]: 219 s⁻¹ | kcat/Km [5]: 199000 M⁻¹ s⁻¹

B5: Bacillus lentus subtilisin variant N76D/S103A (Protease #3) (Lederbergia lenta; N74D/S101A) (protein)
chain: AQSVPWGISRVQAPAAHNRGLTGSGVKVAVLDTGISTHPDLNIRGGASFVPGEPSTQDGNGHGTHVAGTIAALDNSIGVLGVAPSAELYAVKVLGASGSGAVSSIAQGLEWAGNNGMHVANLSLGSPSPSATLEQAVNSATSRGVLVVAASGNSGAGSISYPARYANAMAVGATDQNNNRASFSQYGAGLDIVAPGVNVQSTYPGSTYASLNGTSMATPHVAGAAALVKQKNPSWSNVQIRNHLKNTATSLGSTNLYGSGLVNAEAATR
notes: as for B2
Km [5]: 1400 µM | kcat [5]: 400 s⁻¹ | kcat/Km [5]: 286000 M⁻¹ s⁻¹

B6: Bacillus lentus subtilisin variant N76D (Lederbergia lenta; N74D) (protein)
chain: AQSVPWGISRVQAPAAHNRGLTGSGVKVAVLDTGISTHPDLNIRGGASFVPGEPSTQDGNGHGTHVAGTIAALDNSIGVLGVAPSAELYAVKVLGASGSGSVSSIAQGLEWAGNNGMHVANLSLGSPSPSATLEQAVNSATSRGVLVVAASGNSGAGSISYPARYANAMAVGATDQNNNRASFSQYGAGLDIVAPGVNVQSTYPGSTYASLNGTSMATPHVAGAAALVKQKNPSWSNVQIRNHLKNTATSLGSTNLYGSGLVNAEAATR
notes: as for B2
Km [5]: 800 µM | kcat [5]: 219 s⁻¹ | kcat/Km [5]: 274000 M⁻¹ s⁻¹

B7: Bacillus lentus subtilisin variant N76D/V104I (Protease #4) (Lederbergia lenta; N74D/V102I) (protein)
chain: AQSVPWGISRVQAPAAHNRGLTGSGVKVAVLDTGISTHPDLNIRGGASFVPGEPSTQDGNGHGTHVAGTIAALDNSIGVLGVAPSAELYAVKVLGASGSGSISSIAQGLEWAGNNGMHVANLSLGSPSPSATLEQAVNSATSRGVLVVAASGNSGAGSISYPARYANAMAVGATDQNNNRASFSQYGAGLDIVAPGVNVQSTYPGSTYASLNGTSMATPHVAGAAALVKQKNPSWSNVQIRNHLKNTATSLGSTNLYGSGLVNAEAATR
notes: as for B2
Km [5]: 1100 µM | kcat [5]: 459 s⁻¹ | kcat/Km [5]: 417000 M⁻¹ s⁻¹

B8: Bacillus lentus subtilisin variant N76D/N123S (Protease #6) (Lederbergia lenta; N121S/N74D) (protein)
chain: AQSVPWGISRVQAPAAHNRGLTGSGVKVAVLDTGISTHPDLNIRGGASFVPGEPSTQDGNGHGTHVAGTIAALDNSIGVLGVAPSAELYAVKVLGASGSGSVSSIAQGLEWAGNNGMHVASLSLGSPSPSATLEQAVNSATSRGVLVVAASGNSGAGSISYPARYANAMAVGATDQNNNRASFSQYGAGLDIVAPGVNVQSTYPGSTYASLNGTSMATPHVAGAAALVKQKNPSWSNVQIRNHLKNTATSLGSTNLYGSGLVNAEAATR
notes: as for B2
Km [5]: 1800 µM | kcat [5]: 115 s⁻¹ | kcat/Km [5]: 64000 M⁻¹ s⁻¹

B9: Bacillus lentus subtilisin variant N76D/S99D/S101R (Protease #7) (Lederbergia lenta; N74D/S97D/S99R) (protein)
chain: AQSVPWGISRVQAPAAHNRGLTGSGVKVAVLDTGISTHPDLNIRGGASFVPGEPSTQDGNGHGTHVAGTIAALDNSIGVLGVAPSAELYAVKVLGADGRGSVSSIAQGLEWAGNNGMHVANLSLGSPSPSATLEQAVNSATSRGVLVVAASGNSGAGSISYPARYANAMAVGATDQNNNRASFSQYGAGLDIVAPGVNVQSTYPGSTYASLNGTSMATPHVAGAAALVKQKNPSWSNVQIRNHLKNTATSLGSTNLYGSGLVNAEAATR
notes: as for B2
Km [5]: 380 µM | kcat [5]: 146 s⁻¹ | kcat/Km [5]: 384000 M⁻¹ s⁻¹

B10: Bacillus lentus subtilisin variant N76D/S99D (Protease #1) (Lederbergia lenta; N74D/S97D) (protein)
chain: AQSVPWGISRVQAPAAHNRGLTGSGVKVAVLDTGISTHPDLNIRGGASFVPGEPSTQDGNGHGTHVAGTIAALDNSIGVLGVAPSAELYAVKVLGADGSGSVSSIAQGLEWAGNNGMHVANLSLGSPSPSATLEQAVNSATSRGVLVVAASGNSGAGSISYPARYANAMAVGATDQNNNRASFSQYGAGLDIVAPGVNVQSTYPGSTYASLNGTSMATPHVAGAAALVKQKNPSWSNVQIRNHLKNTATSLGSTNLYGSGLVNAEAATR
notes: as for B2
Km [5]: 610 µM | kcat [5]: 88 s⁻¹ | kcat/Km [5]: 144000 M⁻¹ s⁻¹
